Assay results reported in PMC2669960 (The EMBO Journal, 2009).
Like-named read-outs stand apart in the source and are kept apart here. Each block holds one binder with its values, some of them ahead of it.

B1: His–Ska3 (N), tag cleaved (domain or fragment)
chain: MDPIRSFCGKLRSLASTLDCETARLQRALDGEESDFEDYPMRILYDLHSEVQTLKDDVNILLDKARLENQEGIDFIKATKVLMEKNSMDIMKIREYFQKYGYSPRVKKNSVHEQEAINSDPELSNCENFQKTDVKDDLSDPPVASSCISEKSPRSP
B2: His–Ska1 (N), tag cleaved (domain or fragment)
chain: MASSDLEQLCSHVNEKIGNIKKTLSLRNCGQEPTLKTVLNKIGDEIIVINELLNKLELEIQYQEQTNNSLKELCESLEEDYKDIEHLKENVPSHLPQVTVTQSCVKGSDLDPEEPIKVEEPEPVKKPPKE

How the values were obtained:
Experiment in all cases: co-purification
[1] = biological target: T1, His–Ska1 (full length), tag cleaved (human, UniProt Q96BD8 1-255)
T1 sequence: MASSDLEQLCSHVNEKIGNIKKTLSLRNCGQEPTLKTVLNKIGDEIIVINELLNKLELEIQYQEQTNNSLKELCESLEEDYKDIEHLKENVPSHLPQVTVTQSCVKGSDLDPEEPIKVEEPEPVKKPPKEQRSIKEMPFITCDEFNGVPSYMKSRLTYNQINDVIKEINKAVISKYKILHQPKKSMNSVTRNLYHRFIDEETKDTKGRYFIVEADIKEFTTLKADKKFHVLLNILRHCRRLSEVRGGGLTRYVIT

[2] = biological target: T2, GST–Ska1 (full length), tag cleaved (human, UniProt Q96BD8 1-255)
T2 sequence: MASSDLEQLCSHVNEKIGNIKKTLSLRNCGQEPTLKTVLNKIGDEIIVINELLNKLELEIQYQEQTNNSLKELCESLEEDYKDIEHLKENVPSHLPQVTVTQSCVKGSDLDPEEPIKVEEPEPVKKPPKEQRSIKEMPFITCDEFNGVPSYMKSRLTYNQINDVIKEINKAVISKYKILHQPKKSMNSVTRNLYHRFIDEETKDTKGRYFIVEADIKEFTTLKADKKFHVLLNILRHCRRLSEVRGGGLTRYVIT

[3] = biological target: B1
[4] = biological target: T2, GST–Ska1 (full length), tag cleaved; remark: listed apart in the source
[5] = biological target: T1, His–Ska1 (full length), tag cleaved; remark: listed apart in the source
[6] = biological target: B1; remark: listed apart in the source
[7] = biological target: B2

Binder: B1
binding result [1]: binds
binding result [2]: binds

Binder: B2
binding result [3]: binds

More lines, now with the values ahead:

binding result [4]: binds
B3: untagged Ska2 (natural protein)
chain: MEAEVDKLELMFQKAESDLDYIQYRLEYEIKTNHPDSASEKNPVTLLKELSVIKSRYQTLYARFKPVAVEQKESKSRICATVKKTMNMIQKLQKQTDLELSPLTKEEKTAAEQFKFHMPDL

binding result [5]: binds
binding result [6]: binds
binding result [7]: binds
B4: GST–Ska2 (full length), tag cleaved (natural protein)
chain: MEAEVDKLELMFQKAESDLDYIQYRLEYEIKTNHPDSASEKNPVTLLKELSVIKSRYQTLYARFKPVAVEQKESKSRICATVKKTMNMIQKLQKQTDLELSPLTKEEKTAAEQFKFHMPDL
